From the supplement of paper PMC5998384

Assays:
HeLa Kyoto [1] = experiment: thermal stability score vs G1/S (z-score of summed log2 fold changes over temperatures); higher = more thermally stable than in G1/S
HeLa Kyoto [2] = experiment: solubility change mitosis vs G1/S (difference of NP-40 vs SDS log2 ratios) (log2 ratio difference); higher = more soluble in mitosis
HeLa Kyoto [3] = experiment: melting temperature (median over replicates), in situ; higher = more thermally stable
HeLa Kyoto [4] = experiment: solubility in G1/S (NP-40 vs SDS abundance) (log2 ratio); higher = more soluble; settings: cell cycle stage: G1/S
[5] = cell cycle stage: early G1 (4.5 h after nocodazole release)
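Wherever melting temperature (median over replicates), in situ is given: HeLa Kyoto cells synchronized by double thymidine or nocodazole block, proteins quantified by TMT10plex mass spectrometry, three independent biological replicates.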
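Wherever solubility change mitosis vs G1/S (difference of NP-40 vs SDS log2 ratios) is given: synchronized HeLa Kyoto cells (double thymidine block for G1/S, nocodazole release for mitosis), protein amounts in NP-40 versus SDS lysates quantified by mass spectrometry, three biological replicates.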
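Wherever solubility in G1/S (NP-40 vs SDS abundance) is given: HeLa Kyoto cells arrested at G1/S by double thymidine block, proteins quantified by TMT10plex mass spectrometry in mild NP-40 versus SDS extracts, three biological replicates.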
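Wherever thermal stability score vs G1/S (z-score of summed log2 fold changes over temperatures) is given: synchronized HeLa Kyoto cells, proteins quantified by TMT10plex mass spectrometry, three biological replicates, mitosis taken 0.5 h after nocodazole release, G1/S directly after double thymidine block.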

Substance	thermal stability score (HeLa Kyoto [1]; [5])	thermal stability score (HeLa Kyoto [1]; cell cycle stage: mitosis)	solubility change mitosis (log2) (HeLa Kyoto [2])	melting temperature (HeLa Kyoto [3]; cell cycle stage: G1/S) [°C]	melting temperature (HeLa Kyoto [3]; cell cycle stage: mitosis) [°C]	solubility in G1/S (log2) (HeLa Kyoto [4])
MIEMAAEKEPFLVPAPPPPLKDESGGGGGPTVPPHQEAASGELRGGTERGPGRCAPSAGSPAAAVGRESPGAAATSSSGPQAQQHRGGGPQAQSHGEARLSDPPGRAAPPDVGEERRGGGGTELGPPAPPRPRNGYQPHRPPGGGGGKRRNSCNVGGGGGGFKHPAFKRRRRVNSDCDSVLPSNFLLGGNIFDPLNLNSLLDEEVSRTLNAETPKSSPLPAKGRDPVEILIPKDITDPLSLNTCTDEGHVVLASPLKTGRKRHRHRGQHHQQQQAAGGSESHPVPPTAPLTPLLHGEGASQQPRHRGQNRDAPQPYELNTAINCRDEVVSPLPSALQGPSGSLSAPPAASVISAPPSSSSRHRKRRRTSSKSEAGARGGGQGSKEKGRGSWGGRHHHHHPLPAAGFKKQQRKFQYGNYCKYYGYRNPSCEDGRLRVLKPEWFRGRDVLDLGCNVGHLTLSIACKWGPSRMVGLDIDSRLIHSARQNIRHYLSEELRLPPQTLEGDPGAEGEEGTTTVRKRSCFPASLTASRGPIAAPQVPLDGADTSVFPNNVVFVTGNYVLDRDDLVEAQTPEYDVVLCLSLTKWVHLNWGDEGLKRMFRRIYRHLRPGGILVLEPQPWSSYGKRKTLTETIYKNYYRIQLKPEQFSSYLTSPDVGFSSYELVATPHNTSKGFQRPVYLFHKARSPSH [MEPCE]	2.47	4.6	0.364	47.8	49.8	-0.115
MDATALERDAVQFARLAVQRDHEGRYSEAVFYYKEAAQALIYAEMAGSSLENIQEKITEYLERVQALHSAVQSKSADPLKSKHQLDLERAHFLVTQAFDEDEKENVEDAIELYTEAVDLCLKTSYETADKVLQNKLKQLARQALDRAEALSEPLTKPVGKISSTSVKPKPPPVRAHFPLGANPFLERPQSFISPQSCDAQGQRYTAEEIEVLRTTSKINGIEYVPFMNVDLRERFAYPMPFCDRWGKLPLSPKQKTTFSKWVRPEDLTNNPTMIYTVSSFSIKQTIVSDCSFVASLAISAAYERRFNKKLITGIIYPQNKDGEPEYNPCGKYMVKLHLNGVPRKVIIDDQLPVDHKGELLCSYSNNKSELWVSLIEKAYMKVMGGYDFPGSNSNIDLHALTGWIPERIAMHSDSQTFSKDNSFRMLYQRFHKGDVLITASTGMMTEAEGEKWGLVPTHAYAVLDIREFKGLRFIQLKNPWSHLRWKGRYSENDVKNWTPELQKYLNFDPRTAQKIDNGIFWISWDDLCQYYDVIYLSWNPGLFKESTCIHSTWDAKQGPVKDAYSLANNPQYKLEVQCPQGGAAVWVLLSRHITDKDDFANNREFITMVVYKTDGKKVYYPADPPPYIDGIRINSPHYLTKIKLTTPGTHTFTLVVSQYEKQNTIHYTVRVYSACSFTFSKIPSPYTLSKRINGKWSGQSAGGCGNFQETHKNNPIYQFHIEKTGPLLIELRGPRQYSVGFEVVTVSTLGDPGPHGFLRKSSGDYRCGFCYLELENIPSGIFNIIPSTFLPKQEGPFFLDFNSIIPIKITQLQ [CAPN7]	-0.306	-0.374	-0.0174	50.4	49.7	0.0756
MPSASCDTLLDDIEDIVSQEDSKPQDRHFVRKDVVPKVRRRNTQKYLQEEENSPPSDSTIPGIQKIWIRTWGCSHNNSDGEYMAGQLAAYGYKITENASDADLWLLNSCTVKNPAEDHFRNSIKKAQEENKKIVLAGCVPQAQPRQDYLKGLSIIGVQQIDRVVEVVEETIKGHSVRLLGQKKDNGRRLGGARLDLPKIRKNPLIEIISINTGCLNACTYCKTKHARGNLASYPIDELVDRAKQSFQEGVCEIWLTSEDTGAYGRDIGTNLPTLLWKLVEVIPEGAMLRLGMTNPPYILEHLEEMAKILNHPRVYAFLHIPVQSASDSVLMEMKREYCVADFKRVVDFLKEKVPGITIATDIICGFPGETDQDFQETVKLVEEYKFPSLFINQFYPRPGTPAAKMEQVPAQVKKQRTKDLSRVFHSYSPYDHKIGERQQVLVTEESFDSKFYVAHNQFYEQVLVPKNPAFMGKMVEVDIYESGKHFMKGQPVSDAKVYTPSISKPLAKGEVSGLTKDFRNGLGNQLSSGSHTSAASQCDSASSRMVLPMPRLHQDCALRMSVGLALLGLLFAFFVKVYN [CDKAL1]	-2.9	-1	-0.00551	51.2	50.7	0.0175
MSEQSICQARASVMVYDDTSKKWVPIKPGQQGFSRINIYHNTASNTFRVVGVKLQDQQVVINYSIVKGLKYNQATPTFHQWRDARQVYGLNFASKEEATTFSNAMLFALNIMNSQEGGPSSQRQVQNGPSPDEMDIQRRQVMEQHQQQRQESLERRTSATGPILPPGHPSSAASAPVSCSGPPPPPPPPVPPPPTGATPPPPPPLPAGGAQGSSHDESSMSGLAAAIAGAKLRRVQRPEDASGGSSPSGTSKSDANRASSGGGGGGLMEEMNKLLAKRRKAASQSDKPAEKKEDESQMEDPSTSPSPGTRAASQPPNSSEAGRKPWERSNSVEKPVSSILSRTPSVAKSPEAKSPLQSQPHSRMKPAGSVNDMALDAFDLDRMKQEILEEVVRELHKVKEEIIDAIRQELSGISTT [EVL]	-0.133	-0.273	-0.143	50		0.231
MEAARPPPTAGKFVVVGGGIAGVTCAEQLATHFPSEDILLVTASPVIKAVTNFKQISKILEEFDVEEQSSTMLGKRFPNIKVIESGVKQLKSEEHCIVTEDGNQHVYKKLCLCAGAKPKLICEGNPYVLGIRDTDSAQEFQKQLTKAKRIMIIGNGGIALELVYEIEGCEVIWAIKDKAIGNTFFDAGAAEFLTSKLIAEKSEAKIAHKRTRYTTEGRKKEARSKSKADNVGSALGPDWHEGLNLKGTKEFSHKIHLETMCEVKKIYLQDEFRILKKKSFTFPRDHKSVTADTEMWPVYVELTNEKIYGCDFIVSATGVTPNVEPFLHGNSFDLGEDGGLKVDDHMHTSLPDIYAAGDICTTSWQLSPVWQQMRLWTQARQMGWYAAKCMAAASSGDSIDMDFSFELFAHVTKFFNYKVVLLGKYNAQGLGSDHELMLRCTKGREYIKVVMQNGRMMGAVLIGETDLEETFENLILNQMNLSSYGEDLLDPNIDIEDYFD [PYROXD1]	-0.128	-0.037	-0.158	49.6	49.9	-0.102
MGPLPRTVELFYDVLSPYSWLGFEILCRYQNIWNINLQLRPSLITGIMKDSGNKPPGLLPRKGLYMANDLKLLRHHLQIPIHFPKDFLSVMLEKGSLSAMRFLTAVNLEHPEMLEKASRELWMRVWSRNEDITEPQSILAAAEKAGMSAEQAQGLLEKIATPKVKNQLKETTEAACRYGAFGLPITVAHVDGQTHMLFGSDRMELLAHLLGEKWMGPIPPAVNARL [GSTK1]	-1.28	-0.907	-0.098	50.9	52	0.121
MADHSFSDGVPSDSVEAAKNASNTEKLTDQVMQNPRVLAALQERLDNVPHTPSSYIETLPKAVKRRINALKQLQVRCAHIEAKFYEEVHDLERKYAALYQPLFDKRREFITGDVEPTDAESEWHSENEEEEKLAGDMKSKVVVTEKAAATAEEPDPKGIPEFWFTIFRNVDMLSELVQEYDEPILKHLQDIKVKFSDPGQPMSFVLEFHFEPNDYFTNSVLTKTYKMKSEPDKADPFSFEGPEIVDCDGCTIDWKKGKNVTVKTIKKKQKHKGRGTVRTITKQVPNESFFNFFNPLKASGDGESLDEDSEFTLASDFEIGHFFRERIVPRAVLYFTGEAIEDDDNFEEGEEGEEEELEGDEEGEDEDDAEINPKV [NAP1L4]	1.4	0.831	-0.0294	51.4	51.7	0.455
MUC16	-2.6	-5.24	-0.177	53.5	53.5	-0.172
MAASSLEQKLSRLEAKLKQENREARRRIDLNLDISPQRPRPTLQLPLANDGGSRSPSSESSPQHPTPPARPRHMLGLPSTLFTPRSMESIEIDQKLQEIMKQTGYLTIGGQRYQAEINDLENLGEMGSGTCGQVWKMRFRKTGHVIAVKQMRRSGNKEENKRILMDLDVVLKSHDCPYIVQCFGTFITNTDVFIAMELMGTCAEKLKKRMQGPIPERILGKMTVAIVKALYYLKEKHGVIHRDVKPSNILLDERGQIKLCDFGISGRLVDSKAKTRSAGCAAYMAPERIDPPDPTKPDYDIRADVWSLGISLVELATGQFPYKNCKTDFEVLTKVLQEEPPLLPGHMGFSGDFQSFVKDCLTKDHRKRPKYNKLLEHSFIKRYETLEVDVASWFKDVMAKTESPRTSGVLSQPHLPFFR [MAP2K7]	1.35	1.39	0.0421	49.9	50	0.237
MPKKFQGENTKSAAARARRAEAKAAADAKKQKELEDAYWKDDDKHVMRKEQRKEEKEKRRLDQLERKKETQRLLEEEDSKLKGGKAPRVATSSKVTRAQIEDTLRRDHQLREAPDTAEKAKSHLEVPLEENVNRRVLEEGSVEARTIEDAIAVLSVAEEAADRHPERRMRAAFTAFEEAQLPRLKQENPNMRLSQLKQLLKKEWLRSPDNPMNQRAVPFNAPK [CCDC124]	0.653	-5.08	0.537	57.1	53.7	0.214
